# Experimental data published in publication doi:10.1101/780452, “Development of c-type lectin oriented surfaces for high avidity glycoconjugates: towards mimicking multivalent interactions on the cell surface” (bioRxiv, 2019).
# B1: DC-SIGN S-ECD (DC-SIGN extracellular domain tagged at its N-terminus with a StreptagII) (domain or fragment, UniProt Q9NNX6 66-404, looked up)
# chain: SISQEQSRQDAIYQNLTQLKAAVGELSEKSKLQEIYQELTQLKAAVGELPEKSKLQEIYQELTRLKAAVGELPEKSKLQEIYQELTWLKAAVGELPEKSKMQEIYQELTRLKAAVGELPEKSKQQEIYQELTRLKAAVGELPEKSKQQEIYQELTRLKAAVGELPEKSKQQEIYQELTQLKAAVERLCHPCPWEWTFFQGNCYFMSNSQRNWHDSITACKEVGAQLVVIKSAEEQNFLQLQSSRSNRFTWMGLSDLNQEGTWQWVDGSPLLPSFKQYWNRGEPNNVGEEDCAEFSGNGWNDDKCNLAKFWICKKSAASCSRDEEQFLSPAPATPNPPPA
# notes: DC-SIGN (Dendritic Cell specific ICAM-3 Grabbing Non-integrin), extracellular domain, amino acids 66-404; A factor Xa cleavage site lies between the N-terminal StreptagII and the ECD; On the chip the protein was captured by StrepTactin and then covalently fixed with EDC/NHS; source: E. coli Rosetta (DE3), inclusion bodies, purified (StrepTactin column, Mannan-agarose, Superose-12); not shown: …
# Target: T1, BSA-Man (glycoprotein bearing 12 glycosylated sites) (bovine (from the name BSA), UniProt P02769 25-607, 12 glycosylated sites (mannose glycans, up to 12 glycans displayed))
# T1 construct: BSA (serum albumin) carrying mannose glycans; A neoglycoprotein; also called Man-BSA
# T1 sequence (P02769 25-607): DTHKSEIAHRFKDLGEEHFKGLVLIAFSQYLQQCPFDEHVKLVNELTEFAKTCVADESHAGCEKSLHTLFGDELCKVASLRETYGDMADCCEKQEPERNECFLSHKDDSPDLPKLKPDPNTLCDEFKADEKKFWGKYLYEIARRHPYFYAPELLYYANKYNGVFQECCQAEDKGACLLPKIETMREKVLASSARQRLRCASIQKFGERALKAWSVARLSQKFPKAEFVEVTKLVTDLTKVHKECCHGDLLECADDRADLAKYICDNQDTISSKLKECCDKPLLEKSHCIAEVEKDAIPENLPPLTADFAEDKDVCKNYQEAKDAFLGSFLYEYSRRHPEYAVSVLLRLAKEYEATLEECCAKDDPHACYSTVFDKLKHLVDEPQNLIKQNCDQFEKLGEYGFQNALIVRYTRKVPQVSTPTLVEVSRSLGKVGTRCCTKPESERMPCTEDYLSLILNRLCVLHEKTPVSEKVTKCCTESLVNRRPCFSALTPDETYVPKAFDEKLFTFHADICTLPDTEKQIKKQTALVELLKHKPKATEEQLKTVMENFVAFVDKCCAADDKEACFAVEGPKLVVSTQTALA
# Test: SPR; BSA-Man titrated over a DC-SIGN S-ECD oriented surface (StrepTactin-functionalised CM3 chip, Biacore T200); 25 mM Tris pH 8, 150 mM NaCl, 4 mM CaCl2, 0.05% P20; steady state affinity model; apparent KD for the surface
# Details: both partners purified
binder,measurement,value
B1,Kd,5 nM
